The source of these data is PMC4706845.

Assay [1] has as its target PIKfyve from pig brain cytosol. Briefly: proteo-liposome recruitment, western blot band quantification. To be noted: 2 % input bar shown for reference, parent: est. 38, read off a plot. (In general: Immunoblotting shows a protein as a band on a membrane.)
The target of assay [2] is Vac14 from pig brain cytosol (UniProt F1S3E8). Described as above. Particulars: 2 % input bar shown for reference, parent: est. 21, read off a plot.
UniProt F1S3E8, sequence (F1S3E8 entry or part of it): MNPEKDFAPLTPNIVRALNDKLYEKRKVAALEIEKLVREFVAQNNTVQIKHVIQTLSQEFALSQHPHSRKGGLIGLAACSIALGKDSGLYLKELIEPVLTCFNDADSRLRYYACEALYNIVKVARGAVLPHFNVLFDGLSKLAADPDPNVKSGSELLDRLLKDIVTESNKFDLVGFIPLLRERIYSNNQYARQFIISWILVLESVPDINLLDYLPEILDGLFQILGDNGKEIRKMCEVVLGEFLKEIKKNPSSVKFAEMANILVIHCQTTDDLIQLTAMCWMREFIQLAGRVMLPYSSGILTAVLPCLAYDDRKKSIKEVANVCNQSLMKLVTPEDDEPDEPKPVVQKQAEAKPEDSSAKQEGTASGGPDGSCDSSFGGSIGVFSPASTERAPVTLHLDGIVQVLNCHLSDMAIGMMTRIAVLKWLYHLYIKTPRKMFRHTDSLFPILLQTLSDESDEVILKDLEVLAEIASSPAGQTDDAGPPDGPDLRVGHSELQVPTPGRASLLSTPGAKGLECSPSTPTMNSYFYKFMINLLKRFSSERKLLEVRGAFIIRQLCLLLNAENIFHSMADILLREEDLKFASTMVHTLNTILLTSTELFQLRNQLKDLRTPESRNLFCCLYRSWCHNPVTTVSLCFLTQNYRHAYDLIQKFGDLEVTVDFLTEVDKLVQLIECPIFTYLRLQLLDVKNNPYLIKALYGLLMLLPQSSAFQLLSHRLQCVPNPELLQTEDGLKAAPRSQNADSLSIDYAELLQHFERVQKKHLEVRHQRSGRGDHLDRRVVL

For “APP intracellular domain (AICD), full length AICD N36A; P37A”, the response in assay [1] was found to be 8.5 a.u; in assay [2], 3.5 a.u.

Regarding “APP intracellular domain (AICD), full length AICD T38A; Y39A”, the response was determined as 3 a.u in assay [1] and 0.7 a.u in assay [2].

On to “APP intracellular domain (AICD), full length AICD Y34A; E35A”, for which the response in assay [1] turned out to be 2.5 a.u; in assay [2] it was 1 a.u.
